Values of other authors in US20050164234A1, “Methods of using mammalian RNase H and compositions thereof” (priority 1997, published 2005).

Target: DNA/2′F heteroduplex
Details: derived from previously reported data, Lima and Crooke (1997); cited from earlier work

B1: E. coli RNase H1: E. coli RNase H1 enzyme, 155 amino acids, literature comparator (protein)
chain: MLKQVEIFTDGSCLGNPGPGGYGAILRYRGREKTFSAGYTRTTNNRMELMAAIVALEALKEHCEVILSTDSQYVRQGITQWIHNWKKRGWKTADKKPVKNVDLWQRLDAALGQHQIKWEWVKGHAGHPENERCDELARAAAMNPTLEDTGYQVEV
Kd: 1600 nM
